{"source": "the DeepSol protein solubility set"}
{"assay": "soluble on expression in E. coli; label from the status in PepcDB or PDB records"}
{"sequence": "MRRGGSMGPPSGDPYQSRPSPGGYYYNRSTPGGQPAPSPSHSQQSASSHHPRGVPMSQPIARRSDYRTGSEQMTPRSDHRGPSMGYGNGGSVDQRVDDVTPSYYVEHLATFAVGRQFGLTFPADGIRKLKQMEKNSAIWAQPLILRFRHNAVTVEDDNGELVEQFPLELIEQPTAHVSNDSRETYNNVLLFVVREDRKRMSTPTEMHIFQCIRVSATDVAEDLKNYVQGQFRRVRNGRRTAAPTHLQAQQQQMPFYPPDDASISSETSEMFERDVNTLNRCFDDIERFVARIQSAALAQREIEQQNHRYRTANRRDKKNQQPPDPNGILFMRAQLPLESEFVDILKKFKLSFNLLAKLKNHIHEPNAPELLHFLFTPLAVILEACHWGLGRNVAPTVASPLLSLEARELMQNCLTSHESDIWMSLGEAWRTPPEDWTKPLPPPYRPIFNDGFAPYGVADRAMATPNQIHRGHSAPPEHFRQPPPRERNMVDTLEFDRLTLERERLEFEKAKIMERESRLRHEEKQIEDEKRRMHAEKDLITKETTQPVPPPAAVVTHQPITKRYDPPISISPPPQRNNYSHVKVTVDSDTSPRQQAFIDDIVAKGGKLAVVTYDRGGQNTKELTVHKGEYLEVIFDERNWWECKNMHQRVGYVPHTILSMVPFEQQQYAQQYNVMSSQHNVIQINDGVGKMEVFISKTCNFILITTCNLFCSTTKTAVPDIYRAFVMNDETRQMSGTPCENSRSFLSSNTLSSSPENAPEIPLLENLKFNHNKLYLFHILSPNHHNNSSSTGGYNNGHHQGPGMLPEDAPSYVKERQAQNVYRPPPPPLVSDAGVQVEIRREHVAPPPPPVVIPPPPPPVRTPTMEELLRMQQQQQQKQRKPPVEEPVYQPQPAQRAGLEIWRRNQNPQLIQEVTETVGQHSGDILRPAMQRATRVAINEKSSPEDVTRWLQEKGFSPRVIDLLDGQDGANLFSLSKLHLQQACGRDEGGYLYSQLLVQKKRSGFRTHTGDELKAILNHRRTHVELSNEAAADEPVFTINPIL", "soluble on expression in E. coli": "not soluble"}
{"sequence": "MRRKETLQETPLTYQELASKILPELHLLAQEAGIEGYKRMKKDQLIMALLERQTQGEGLRLVKGYLEISQDGYGFLTENLHNLESRVAIVSAGLIKQYALRAGDYVVGQARPPRENERYATLLKVEAVNNLDPEAAKNRPRFDELTPQFPDRQIRLETTPDELSTRVIDLLAPIGRGQRGLIVAPPKAGKTTLLKKIANAVLKNEPDIKVIVLLIDERPEEVTDFRESVQGAEVIASTFDEPPQNHIRVAEFVHERAKRIVEEGGHVMILLDSITRLARANNLVTPPTGRTLSGGLDSAALYFPKRFLGAARNIRGGGSLTILATALVETGSRMDDVIFEEFKGTGNMELHLSRRLEERRIFPAIDILKSGTRREELLLGEEVTHKMWLLRKVLADMDPAEAMEMLLARLARTKNNKEFLASLAAR", "soluble on expression in E. coli": "soluble"}
{"sequence": "MRRNISIPASDSESALPGSPQGSDAHVSWWCGCGVIVGMSVSLLRGRTVRRALSVLVVAGLLGAGVTGCSNDAGAKTENTIDASPTPTNTTTDGDGDSTEEPVENTPAEPEQRPTPVEPEAMKTGDKAGAIAAAQFFVEVFDYDARTSSTTLMDKYAYKKCTLCNEMRSDKQRLIDEGEISFWAEYSEAEYINSTFVGDEEIIWEVDTETSYLEHVRSLTSNEITSTRTDLILTMQIGWLGDRWELVSLGYSKK", "soluble on expression in E. coli": "not soluble"}
{"sequence": "MRRVETDSTGQIEVDNDKYWGAQTQRSIEHFSIGSDLMPIEVIKALAIIKKAAAITNHQLGILARTKKEIIIKVADEIIAGELDEHFPLRVLMTGSGTQSNMNVNEVISNRAIELLGGKKGSKNPIHPNDDVNMSQSSNDTFPSAMYIATALEINNRLLPALEYMQQQLADKAKQWDDIVKIGRTHMQDAVPLTLGQEFSGYAALLENNIQRIKDTLKYVYQLALGGTAVGTGLNAPDGFAEITAKYIATITSLAFVSATNKFEVQGSHDALVAVMGQLKTLANSLFKIANDIRLLSCGPRAGFHELLIPENEPGSSIMPGKVNPTQCEAMAMVAAQVIGYDVAVGIGGSAGYLEMNVYKPLIIFNIIQSIKIISDSCVNFTKYLLEGMKPNHDKIEFYLKNSLMLVTALSPVIGYDKAAKLAHYAEQKNISLAEANQELKFLSKEEFDKVVDPYKMTKGGIL", "soluble on expression in E. coli": "not soluble"}
{"sequence": "MRRVLVGAAALITALLVLTGCTKSISGTAVKAGGAGVPRNNNSQERYPNLLKECEVLTTDILAKTVGADPLDIQSTFVGAICRWQAANPAGLIDITRFWFEQGSLSNERKVAEGLKYQVETRAIQGVDSIVMRTGDPNGACGVASDAAGVVGWWVNPQAPGIDACGQAIKLMELTLATNA", "soluble on expression in E. coli": "soluble"}
{"sequence": "MRSGDAEIKGIKPKVIEEYSLSQGSGPSNDSWKSLMSSAKDTPLQYDHMNRESLKKYFNPNAQLIEDPLDKPIQYRVCEKCGKPLALTAIVDHLENHCAGASGK", "soluble on expression in E. coli": "soluble"}
{"sequence": "MRSISVGLDREESGSDGLCLGLVVLATLAAGFVAGSDVLRCWGFGPATGDVCLWVEAGFWRCPLPGGGADGQGPGFWDAALREARMFCRSCVGLRMIGWRR", "soluble on expression in E. coli": "not soluble"}
{"sequence": "MRTFTWRKGSLSKVNTCYVLAGGKSKRFGEDKLLYEIKGKKVIERVYETAKSVFKEVYIVAKDREKFSFLNAPVVLDEFEESASIIGLYTALKHAKEENVFVLSGDLPLMKKETVLYVLENFKEPVSVAKTEKLHTLVGVYSKKLLEKIEERIKKGDYRIWALLKDVGYNEVEIPEELRYTLLNMNTKEDLKRILAIENHY", "soluble on expression in E. coli": "soluble"}
{"sequence": "MRTHDDTWDIKTSVGTTAVMVAAARAAETDRPDALIRDPYAKLLVTNTGAGALWEAMLDPSMVAKVEAIDAEAAAMVEHMRSYQAVRTNFFDTYFNNAVIDGIRQFVILASGLDSRAYRLDWPTGTTVYEIDQPKVLAYKSTTLAEHGVTPTADRREVPIDLRQDWPPALRSAGFDPSARTAWLAEGLLMYLPATAQDGLFTEIGGLSAVGSRIAVETSPLHGDEWREQMQLRFRRVSDALGFEQAVDVQELIYHDENRAVVADWLNRHGWRATAQSAPDEMRRVGRWGDGVPMADDKDAFAEFVTAHRL", "soluble on expression in E. coli": "soluble"}
{"sequence": "MRTLYPEITPYQQGSLKVDDRHTLYFEQCGNPHGKPVVMLHGGPGGGCNDKMRRFHDPAKYRIVLFDQRGSGRSTPHADLVDNTTWDLVADIERLRTHLGVDRWQVFGGSWGSTLALAYAQTHPQQVTELVLRGIFLLRRFELEWFYQEGASRLFPDAWEHYLNAIPPVERADLMSAFHRRLTSDDEATRLAAAKAWSVWEGATSFLHVDEDFVTGHEDAHFALAFARIENHYFVNGGFFEVEDQLLRDAHRIADIPGVIVHGRYDVVCPLQSAWDLHKAWPKAQLQISPASGHSAFEPENVDALVRATDGFA", "soluble on expression in E. coli": "soluble"}
{"sequence": "MRTTSRALMYGLYDEFQISLKCPRSPPNSSFSICHAQAAFLSGVCEAMLCPLERVQVLLQTTIFHDKFKNTLHTFNRLRDYGYREYYRGFSVILIRNSLSNTIFFTLRDPLKQKIVGIPQAGRLPESLQQLIGDFVAGSLLGATISTAFFPLGVIKNHMQAKVGVKYESGFKVFRDVWQLRNRSLRGLYLGVHLNFTRSLVAWGIINSMYGILRRALAPFE", "soluble on expression in E. coli": "not soluble"}
{"sequence": "MRVKTGVVRRRRHKKVLKLARGFYSGRRKHFRKAKEQLERSMYYAFRDRKQKKREFRSLWVVRINAACRMHNTSYSRFMHALKVANIELDRKVLADMAMNDMQAFTSVLESVKEHLLEHHHHHH", "soluble on expression in E. coli": "soluble"}
{"sequence": "MRVLVKLSGEALSGEGGRGFDPERVNYIVNEIKSAIEEGFKIGIVVGAGNLFRGVELKNLTMTRADQIGLLGTVMNSVYLKDIFERSGLKARIYSQIVNLPDVERVNYDSIESALRENSILIFAGGTSNPFFTTDTAAVLRAQEMRAKLVVKATKVDGVYDKDPKKFPDAKKIPHLTFSEAMKMGLKVMDAEAFALCKKLGITVKVINFFEPGTLLKALKGEDVGSTVVPD", "soluble on expression in E. coli": "soluble"}
{"sequence": "MRVQILKDFVKQHFPATPLLDYALEVEKITTSKKPNLILNVDGFIGVAFVDMLRNCGSFTREEADEYVDIGALNGIFVLGRSMGFIGHYLDQKRLKQGLYRHPWDDISYVLPEHMSM", "soluble on expression in E. coli": "not soluble"}
{"sequence": "MRVRSETVNKPQSLRHALNKAVPYVRNNPDKLHLFVDNGSLVATGASSMSWEYRYTLNAVIEDFSGDQNLLMAPVLLWLRDNQPDAINNPALREKLFTFEVDILRNDVCDISLNLQLTERVLVSTDGSVSSVEAVAEPDEPEEMWTVKRG", "soluble on expression in E. coli": "not soluble"}
